Article PMC2973826, “Translation Elongation Factor 1A Facilitates the Assembly of the Tombusvirus Replicase and Stimulates Minus-Strand Synthesis” (PLoS Pathogens, 2010)

Target: T1, MBP-tagged TCV p88C (lacking the p28-overlapping domain from the N-terminus) (Turnip crinkle virus, UniProt P17460 252-775)
T1 sequence: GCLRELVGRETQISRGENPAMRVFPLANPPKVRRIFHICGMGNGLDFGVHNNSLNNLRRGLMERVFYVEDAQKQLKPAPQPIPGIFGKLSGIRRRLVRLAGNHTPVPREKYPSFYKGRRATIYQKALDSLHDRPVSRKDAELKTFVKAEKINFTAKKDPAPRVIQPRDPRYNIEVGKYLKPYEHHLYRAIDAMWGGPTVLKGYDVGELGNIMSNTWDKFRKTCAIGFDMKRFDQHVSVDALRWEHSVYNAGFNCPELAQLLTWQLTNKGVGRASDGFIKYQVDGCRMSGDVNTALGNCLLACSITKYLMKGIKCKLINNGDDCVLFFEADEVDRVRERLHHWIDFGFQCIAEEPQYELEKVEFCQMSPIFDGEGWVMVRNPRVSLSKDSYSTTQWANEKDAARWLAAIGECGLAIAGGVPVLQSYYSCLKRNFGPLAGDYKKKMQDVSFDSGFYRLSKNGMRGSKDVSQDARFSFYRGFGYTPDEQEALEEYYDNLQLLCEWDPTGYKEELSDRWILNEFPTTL
Assay: cell-based or functional assay

B1: eukaryotic translation elongation factor 1A (eEF1A), wild type (natural protein, S. cerevisiae, UniProt P02994 1-458, looked up)
chain: MGKEKSHINVVVIGHVDSGKSTTTGHLIYKCGGIDKRTIEKFEKEAAELGKGSFKYAWVLDKLKAERERGITIDIALWKFETPKYQVTVIDAPGHRDFIKNMITGTSQADCAILIIAGGVGEFEAGISKDGQTREHALLAFTLGVRQLIVAVNKMDSVKWDESRFQEIVKETSNFIKKVGYNPKTVPFVPISGWNGDNMIEATTNAPWYKGWEKETKAGVVKGKTLLEAIDAIEQPSRPTDKPLRLPLQDVYKIGGIGTVPVGRVETGVIKPGMVVTFAPAGVTTEVKSVEMHHEQLEQGVPGDNVGFNVKNVSVKEIRRGNVCGDAKNDPPKGCASFNATVIVLNHPGQISAGYSPVLDCHTAHIACRFDELLEKNDRRSGKKLEDHPKFLKSGDAALVKFVPSKPMCVEAFSEYPPLGRFAVRDMRQTVAVGVIKSVDKTEKAAKVTKAAQKAAKK
With B1 the “in vitro (−)RNA synthesis by the TCV RdRp on a TBSV (+)RNA template after pre-incubation of purified wt eEF1A with the TCV RdRp” value was about 5 fold.
